Target: PP1α_(7-330), His6-tag removed by TEV protease (UniProt P62136 7-330)
Experiment: SEC

PP1α_(7-330), His6-tag removed by TEV protease, sequence (P62136 7-330): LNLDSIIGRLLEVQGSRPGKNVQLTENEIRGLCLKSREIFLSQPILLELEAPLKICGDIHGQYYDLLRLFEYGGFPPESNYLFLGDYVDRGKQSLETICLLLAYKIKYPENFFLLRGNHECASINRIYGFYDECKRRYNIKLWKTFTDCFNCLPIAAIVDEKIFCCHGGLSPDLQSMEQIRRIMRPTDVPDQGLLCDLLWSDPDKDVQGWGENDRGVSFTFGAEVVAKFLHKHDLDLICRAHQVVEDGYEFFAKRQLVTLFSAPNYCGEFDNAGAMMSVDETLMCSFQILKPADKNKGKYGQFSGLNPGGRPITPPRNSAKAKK

B1: spinophilin_(417-583) (domain or fragment)
chain: not shown
- stoichiometry N: 1

— publication PMC3040262 (Biochemistry, 2011)
